Entries after “also recorded” stand apart in the source; their conditions may differ.

One experiment relates to MDA-MB-435 cells. The experiment in a line: Trastuzumab pre-treatment before HerDox, cell survival. Type of experiment: cell-based, human. Conditions: MDA-MB-435, 24 h pre-treatment. An excerpt:
N=3. […] N=3. […] N=3. […] N=3. […] N=3. […] N=3.

For a further experiment, the system named is SKBR3 parental cells. The experiment in a line: Tumor cell killing in culture. Type of experiment: cell-based, human. How it is done:
FIG. 21 depicts graph that show the results of the administration of HerDox on various cells. […] N=3. *=p<0.05 compared to parental. […] N=3.
N=3. *, p<0.05 compared to parental. […] N=3. […] Parental and resistant cell lines were treated with HerDox−/+HER3 blocking peptide (ErbB3 human; Prospec), and tested for cell survival 48 hours later. […] Treatments were compared to mock (saline)-treatment. […] N=3. *, p<0.05 compared to parental. […] N=3.
Parental cell lines were pre-treated with 0.5 mg/mL Tz for 24 hours before testing these cells for surface HER3 levels. […] Parental cell lines were pre-treated with 0.5 mg/mL Tz for 24 hours before testing these cells for HerPBK10 binding. […] SKBR3 Parental cells were treated with Tz at indicated concentrations (see upper X-axes) 4 and 24 hours before HerDox treatment and assayed for survival at 48-72 h after treatment. N=3. […] SK-474 Parental cells were treated with Tz at indicated concentrations (see upper X-axes) 4 and 24 hours before HerDox treatment and assayed for survival at 48-72 h after treatment. N=3. […] MDA-MB-435 non-resistant cells were treated with Tz at indicated concentrations (see upper X-axes) 4 and 24 hours before HerDox treatment and assayed for survival at 48-72 h after treatment. […] N=3. […] Tz-resistant cells were treated with Tz at indicated concentrations (see upper X-axes) 4 and 24 hours before HerDox treatment and assayed for survival at 48-72 h after treatment. N=3.
Each therapeutic was administered at concentration ranges previously established for eliciting therapeutic efficacy.
Previous studies have shown that HER3 is transcriptionally and translationally elevated as soon as 4 hours after HER2 inhibition, either by lapatinib or gene silencing. […]

B1: HerDox: non-covalent complex of HerPBK10, double-stranded oligonucleotide and intercalated Dox (Unit A+Unit B+Unit C) (conjugate)
chain: SHLVKCAEKEKTFCVNGGECFMVKDLSNPSRYLCKCQPGFTGARCTENVPMKVQNQEKAEELYQKMRRAAMYEEGPPPSYESVVSAAPVAAALGSPFDAPLDPPFVPPRYLRPTGGRNSIRYSELAPLFDTTRVYLVDNKSTDVASLNYQNDHSNFLTTVIQNNDYSPGEASTQTINLDDRSHWGGDLKTILHTNMPNVNEFMFTNKFKARVMVSRLPTKDNQVELKYEWVEFTLPEGNYSETMTIDLMNNAIVEHYLKVGRQNGVLESDIGVKFDTRNFRLGFDPVTGLVMPGVYTNEAFHPDIILLPGCGVDFTHSRLSNLLGIRKRQPFQEGFRITYDDLEGGNIPALLDVDAYQASLKDDTEQGGGGAGGSNSSGSGAEENSNAAAAAMQPVEDMNDHAIRGDTFATRAEEKRAEAEAAAEAAAPAAQPEVEKPQKKPVIKPLTEDSKKRSYNLISNDSTFTQYRSWYLAYNYGDPQTGIRSWTLLCTPDVTCGSEQVYWSLPDMMQDPVTFRSTRQISNFPVVGAELLPVHSKSFYNDQAVYSQLIRQFTSLTHVFNRFPENQILARPPAPTITTVSENVPALTDHGTLPLRNSIGGVQRVTITDARRRTCPYVYKALGIVSPRVLSSRTFKKKKKKKKKK
modifications: left off: small tags and cut ends
As for B1, the “enhancement of HerDox toxicity by trastuzumab pre-treatment” value in the experiment on MDA-MB-435 cells is recorded as “modest enhancement in toxicity”. The “response of parental SKBR3 cells” value in the experiment on SKBR3 parental cells (48-72 h after treatment) is “improved cell killing compared to trastuzumab; also recorded: improved cell killing compared to Tz”. Also, in the experiment with SKBR3 parental cells (parental SKBR3, 48-72 h after treatment), the cell death was determined as 50%. Moreover, the “further augmentation of HerDox toxicity by trastuzumab pre-treatment” value in the experiment on SKBR3 parental cells (parental SKBR3, Tz 4 or 24 hours before HerDox, highest doses tested) was 40-50%.

These data come from US9850293B2, “Targeting trastuzumab-resistant HER2+ breast cancer with a HER3-targeting nanoparticle” (priority 2014, dated 2017).
